Where two headings read alike, the source gives them in different places. Where no end group is shown, it is not given here. [ ]: non-standard residue; d: D form. The star is where a group is joined. EDDnp = O=[N+]([O-])c1ccc(NCCN*)c([N+](=O)[O-])c1; 2Abz = Nc1ccccc1C(=O)O
Legend:
[1] = molecular target: protease isolated from Eupenicillium javanicum (metalloprotease, 30 kDa) (Eupenicillium javanicum)
[2] = molecular target: protease isolated from Eupenicillium javanicum (metalloprotease, 30 kDa) (Eupenicillium javanicum); remark: listed apart in the source

B1: Abz-KLQSSKQ-EDDnp (peptide)
peptide: [2Abz]KLQSSKQ-EDDnp
B1 was tested, and the KM of the hydrolysis of the FRET peptide by the purified protease (Michaelis-Menten, pH 6.0, 45°C) [1] was 0.004 mM.

B2: Abz-KFRSSKQ-EDDnp (peptide)
peptide: [2Abz]KFRSSKQ-EDDnp
B2 gave a KM of the hydrolysis of the FRET peptide by the purified protease (Michaelis-Menten, pH 6.0, 45°C) [1] of 0.012 mM.

B3: Abz-VLRSSKQ-EDDnp (peptide)
peptide: [2Abz]VLRSSKQ-EDDnp
Binder B3 has a KM of the hydrolysis of the FRET peptide by the purified protease (Michaelis-Menten, pH 6.0, 45°C) [1] of 0.01 mM.

B4: Abz-KLRYSKQ-EDDnp (peptide)
peptide: [2Abz]KLRYSKQ-EDDnp
With B4 the KM of the hydrolysis of the FRET peptide by the purified protease (Michaelis-Menten, pH 6.0, 45°C) [2] was 0.007 mM.

B5: Abz-KLRSIKQ-EDDnp (peptide)
peptide: [2Abz]KLRSIKQ-EDDnp
In the case of B5, the KM of the hydrolysis of the FRET peptide by the purified protease (Michaelis-Menten, pH 6.0, 45°C) [2] is reported as 0.003 mM.

B6: Abz-KLRSYKQ-EDDnp (peptide)
peptide: [2Abz]KLRSYKQ-EDDnp
B6 showed a KM of the hydrolysis of the FRET peptide by the purified protease (Michaelis-Menten, pH 6.0, 45°C) [2] of 0.003 mM.

— paper PMC5220088
